Results from patent US20250154263A1 (FEINSTEIN INSTITUTES FOR MEDICAL RESEARCH, published 2025).
Each block holds one binder with its values, some of them ahead of it.

Biological target: T1, CLECL1 on the cell surface (CLECL1+ CLL PF cells) (human, UniProt Q8IZS7 1-167)
T1 construct: Native CLECL1 on patient CLL cells or the MEC1 CLL line; also called DCAL-1
T1 sequence: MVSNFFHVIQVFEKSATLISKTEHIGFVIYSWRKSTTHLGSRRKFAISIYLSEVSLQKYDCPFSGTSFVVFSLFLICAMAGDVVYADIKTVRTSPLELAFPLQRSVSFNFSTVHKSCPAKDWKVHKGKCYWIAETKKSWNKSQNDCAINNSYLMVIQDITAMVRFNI
Assay: flow cytometry (FIG. 8E; cells not named in the legend)

binding result: binds
B1: mAb 17.2 (antibody, mouse IgG1, V domains shown)
VH: EVQLQQSGAELVRSGASVKLSCTTSGFNIKDFYIHWVRQRPEQGLEWIGWIDPKNDDTEYAPRFQGKATVTADTSSNTAYLHLSGLTSEDTAVYYCNGRYPTMDFWGQGTSVT
VL: EIVLTQSPITMTTSPGEKITITCSASSSISSHYLHWYQQKPGFSPKLLIYRASNLASGVPTRFSGSGSGTSYSLTIDTMEAEDVATYFCQQGSSLPLTFGAGTKLELK
notes: also called 17.2.3; hybridoma #17

binding result: binds
B2: mAb 243.6 (antibody, mouse IgG1, V domains shown)
VH: EVQLQQSGTVLVRSGASVKLSCTASGFNIKEYYIHWVKQRPEQGLEWIAWIDLENGESEYAPKFQGKATLTADTSSNTAYLQLSGLTSEDTAVYYCNAFHGNYAHNYAIDYWGQGTSVTVSQ
VL: DIVMSQSPSSLAVSAGEKVTMTCKSSQSLLNSRTRKNYLAWYQQKPGQSPKLLIYWASTRKSGVPDRFTGSGSGTDFTLTISSVQAEDLAVYYCKQSYNLRTFGGGTKLEIK
notes: also called 243.6.1
